Experimental data published in patent US7387779B2, “Anti-angiogenic proteins and fragments and methods of use thereof” (Beth Israel Deaconess Medical Center, priority 1998, dated 2008).

Experiments:
[1] = test system: C-PAE cells; assay: Endothelial cell proliferation, 3H-thymidine incorporation; format: cell-based, bovine
Experimental: C-PAE cells were grown to confluence in DMEM with 10% fetal calf serum (FCS) and kept contact inhibited for 48 hours. Control cells were 786-O (renal carcinoma) cells, PC-3 cells, HPEC cells, and A-498 (renal carcinoma) cells. Cells were harvested with trypsinization (Life Technologies/Gibco BRL, Gaithersburg, Md., USA) at 37° C. for five minutes. A suspension of 12,500 cells in DMEM with 1% FCS was added to each well of a 24-well plate coated with 10 μg/ml fibronectin. The cells were incubated for 24 hours at 37° C. with 5% CO2 and 95% humidity. […] Unstimulated controls received no bFGF. Cells were treated with concentrations of Arresten or endostatin ranging from 0.01 to 50 μg/ml. All wells received 1 μCurie of ^3H-thymidine at the time of treatment. After 24 hours, medium was removed and the wells were washed with PBS. Cells were extracted with 1N NaOH and added to a scintillation vial containing 4 ml of ScintiVerse II (Fisher Scientific, Pittsburgh, Pa., USA) solution. Thymidine incorporation was measured using a scintillation counter. The results are shown in FIGS. 3A and 3B, which are a pair of graphs showing incorporation of ^3H-thymidine into C-PAE cells treated with varying amounts of Arresten (FIG. 3A) or endostatin (FIG. 3B). Arresten appeared to inhibit thymidine incorporation in C-PAE as well as did endostatin. Behavior of control cells treated with Arresten and endostatin is also shown in FIG. 4A, 4B, 4C, and 4D, with Arresten having little effect on 786-O cells (FIG. 4A), PC-3 cells (FIG. 4B), or HPEC cells (FIG. 4C). Endostatin had little effect on A-498 cells (FIG. 4D). All groups in FIGS. 3 and 4 represent triplicate samples.
Bovine calf aortic endothelial (C-PAE) cells were grown to confluence in DMEM with 10% fetal calf serum (FCS) and kept contact inhibited for 48 hours. […] Radioactivity was extracted with 1N NaOH and added to a scintillation vial containing 4 ml of ScintiVerse II (Fisher Scientific, Pittsburgh, Pa., USA) solution. Thymidine incorporation was measured using a scintillation counter. […]

[2] = test system: PC-3 tumors; settings: for tumor volume on day 10: 20 mg/kg i.p. daily for 10 days, control 202.8±50.0
Experimental: In a second PC-3 experiment, PC-3 cells were harvested from culture and 3 million cells were injected into 6- to 7-week-old athymic nude mice, and tumors were allowed to grow subcutaneously for approximately 2 weeks after which the animals were divided into groups of four mice. Experimental groups (4 mice) were injected daily I.P. with Canstatin at a dosage of 3 mg/kg in a total volume of 0.2 ml of PBS or endostatin at a dosage of 8 mg/kg in the same volume of PBS. The control group (4 mice) received equal volumes of PBS each day. Tumor length and width were measured using a Vernier caliper and the tumor volume was calculated using the standard formula: length×width^2×0.52. Tumor volumes ranged from 26 mm^3 to 73 mm^3, and the calculated tumor volume on a given day was divided by the volume on treatment day 0 to produce a fractional tumor volume (V/V0), as described above.

[3] = test system: HUVEC cells; assay: Cell adhesion assay with integrin blocking antibodies; format: cell-based, human; settings: label = plate coating
Experimental: The attachment of HUVECs to Tumstatin-coated plates in the presence of integrin subunits α1 through α6, β1, and αvβ3 integrin blocking antibody was examined. This assay was performed according to the method of Senger et al. (Senger, D. R. et al, 1997, Proc. Natl. Acad. Sci. USA 94:13612-7), with minor modification. 96-well plates were coated with either human Tumstatin, mouse laminin-1, or human Type IV collagen (Collaborative Biomedical Prods., Bedford, Mass., USA) at a concentration of 10 μg/ml overnight at 37° C. Vitronectin (Collaborative Biomed. Prods.) at a concentration of 0.5 μg/ml was then used to coat the plates. The remaining protein binding sites were blocked with 100 mg/ml of BSA (Sigma Chemical Co., St. Louis, Mo., USA) in PBS for 2 hours. HUVEC cells were grown to subconfluence (70-80%) in EGM-2 medium, gently trypsinized and resuspended in serum-free medium (1.5×10^5 cells/ml). The cells were mixed with 10 μg/ml of either mouse IgG, (control) (Life Technologies/Gibco BRL, Gaithersberg, Md., USA) or antibody (mouse monoclonal antibody to the human β1 integrin (clone P4C10) (Life Technologies/Gibco BRL); monoclonal antibody to human integrins α1 through α.6 (CHEMICON Int'l, Temecula, Calif., USA); αvβ3 integrin (clone LM609) (CHEMICON Int'l) and incubated for 15 minutes at room temperature, with gentle agitation. One hundred microliters of the cell suspension was then added to each well and incubated for 45 minutes at 37° C. Unattached cells were removed by washing, and the number of attached cells were counted after staining with methylene blue. C-PAE cells were used in separate experiments, following the above procedure.
Cell Attachment Activity: Cell attachment using endothelial cells was performed as described above. HUVEC or C-PAE cells were incubated with monoclonal anti-human integrin antibodies, control mouse IgG (10 μg/ml), or synthetic peptide, plated onto pre-coated 96-well plates, and the number of cells attaching to the plates was determined using measurement of methylene blue staining at OD655. […] CNGRC peptide was used as a control.
The cell attachment assay was performed as described above.

B1: endostatin: tumor associated angiogenesis inhibitor used as comparator (protein, UniProt P39060 1572-1754, looked up)
Endostatin: HSHRDFQPVLHLVALNSPLSGGMRGIRGADFQCFQQARAVGLAGTFRAFLSSRLQDLYSIVRRADRAAVPIVNLKDELLFPSWEALFSGSEGPLKPGARIFSFDGKDVLRHPTWPQKSVWHGSDPNGRRLTESYCETWRTEAPSATGQASSLLGGRLLGQSAASCHHAYIVLCIENSFMTASK
modifications: Endostatin
B1 was tested, and the “ED50, inhibition of proliferation” value ([1]; bFGF-stimulated, E. Coli-produced Arresten) was 0.75 µg/mL, the tumor suppression ([2]; 5 mg/kg endostatin) was “not able to suppress tumor growth” and the “tumor volume on day 10” value [2] was 68.9±16.7 mm^3.

B2: Tumstatin-44-131: residues 44 to 131 of full-length Tumstatin (SEQ ID NO:33) (protein)
chain: FSFLFVQGNQRAHGQDLGTLGSCLQRFTTMPFLFCNVNDVCNFASRNDYSYWLSTPALMPMNMAPITGRALEPYISRCTVCEGPAIAI
modifications: Tumstatin-45-132 (amino acids 45-132 of SEQ ID NO10)
In the case of B2, the “inhibition of HUVEC attachment to coated plates by αvβ3 antibody” value ([3]; 10 μg/ml antibody) is reported as 47.1% and the “inhibition of HUVEC attachment to coated plates by β1 antibody” value (“inhibition … by β1 antibody” below) ([3]; 10 μg/ml antibody) is reported as 47.5%.

B3: Tumstatin: NC1 domain of the α3 chain of type IV collagen, residues 1-244 (SEQ ID NO:10) (protein, listed as Homo sapiens)
chain: GLKGKRGDSGSPATWTTRGFVFTRHSQTTAIPSCPEGTVPLYSGFSFLFVQGNQRAHGQDLGTLGSCLQRFTTMPFLFCNVNDVCNFASRNDYSYWLSTPALMPMNMAPITGRALEPYISRCTVCEGPAIAIAVHSQTTDIPPCPHGWISLWKGFSFIMFTSAGSEGTGQALASPGSCLEEFRASPFLECHGRGTCNYYSNSYSFWLASLNPERMFRKPIPSTVKAGELEKIISRCQVCMKKRH
With B3 the “inhibition of HUVEC attachment by antibody to subunits α1 through α4” value [3] was “did not block”, the “inhibition of HUVEC attachment by αvβ3 antibody and β1 antibody together” value [3] was 91% and the “inhibition of HUVEC attachment to coated plates by α5 antibody” value ([3]; 10 μg/ml antibody) was 20%. For the same molecule, the “inhibition of HUVEC attachment to coated plates by α6 antibody” value ([3]; 10 μg/ml antibody) was 54%, the “inhibition of HUVEC attachment to coated plates by αvβ3 antibody” value ([3]; 10 μg/ml antibody) was 80% and the “inhibition … by β1 antibody” value ([3]; 10 μg/ml antibody) was 54%. The “ED50, inhibition of 3H-thymidine incorporation” value ([1]; 20% FCS stimulated) was “approximately 0.01 mg/ml” and the “tumor volume on day 10” value [2] was 82.9±25.2 mm^3.

B4: Tum-1: residues 54 to 244 of Tumstatin, lacking the N-terminal 53 amino acids (SEQ ID NO:22) (protein)
chain: QRAHGQDLGTLGSCLQRFTTMPFLFCNVNDVCNFASRNDYSYWLSTPALMPMNMAPITGRALEPYISRCTVCEGPAIAIAVHSQTTDIPPCPHGWISLWKGFSFIMFTSAGSEGTGQALASPGSCLEEFRASPFLECHGRGTCNYYSNSYSFWLASLNPERMFRKPIPSTVKAGELEKIISRCQVCMKKRH
modifications: Tum-1 (Tumstatin N-53) (amino acids 54-244 of SEQ ID NO10)
For B4, the “inhibition of HUVEC attachment to coated plates by α6 antibody” value ([3]; 10 μg/ml antibody) was “did not”, the “inhibition of HUVEC attachment to coated plates by αvβ3 antibody” value ([3]; 10 μg/ml antibody) was “inhibited this adhesion” and the “inhibition … by β1 antibody” value ([3]; 10 μg/ml antibody) was “inhibited this adhesion”. For the same molecule, the anti-tumor activity ([2]; PC3 prostate xenograft model, 5 mg or 20 mg per kilogram) was “substantial anti-tumor activity”.

B5: Canstatin: NC1 domain of the α2 chain of Type IV collagen (SEQ ID NO:6) (protein, listed as Homo sapiens)
chain: VSIGYLLVKHSQTDQEPMCPVGMNKLWSGYSLLYFEGQEKAHNQDLGLAGSCLARFSTMPFLYCNPGDVCYYASRNDKSYWLSTTAPLPMMPVAEDEIKPYISRCSVCEAPAIAIAVHSQDVSIPHCPAGWRSLWIGYSFLMHTAAGDEGGGQSLVSPGSCLEDFRATPFIECNGGRGTCHYYANKYSFWLTTIPEQSFQGSPSADTLKAGLIRTHISRCQVCMKNL
For B5, the “ED50, inhibition of proliferation” value ([1]; 10% serum-stimulated) was “approximately 0.5 μg/ml”, the “tumor suppression compared with endostatin” value ([2]; 3 mg/kg Canstatin) was “same suppressive effect as 8 mg/kg of endostatin” and the “treated tumors, fold less than placebo” value ([2]; athymic (nu/nu) mice) was 2.4 fold. For the same molecule, the “condition of mice during treatment” value ([2]; mouse, in vivo) was “appeared healthy with no signs of wasting”.
